From patent publication US20240034757A1 come the findings set out here.

Sequence of CXCL10_HUMAN (human) (P02778 22-98 limits assumed): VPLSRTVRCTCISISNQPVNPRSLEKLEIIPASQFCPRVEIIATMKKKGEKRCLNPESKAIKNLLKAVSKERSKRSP

The first assay concerns the target CXCL10_HUMAN (human) (UniProt P02778). The assay can be described thus: yeast surface display FACS re-test.
As to “P1096_IXORI (from UniProt A0A0K8RKE4 24-114)”, the % cells over threshold fluorescence amounted to 50%.
The same measure, in the same setting: then “P1134_IXORI (from UniProt A0A0K8RAI0 32-135)”, with 66%.

For another assay, the target named is CXCL12_HUMAN (human) (UniProt P48061). The assay can be described thus: yeast surface display FACS re-test.
Sequence of CXCL12_HUMAN (human) (P48061 22-89 limits assumed): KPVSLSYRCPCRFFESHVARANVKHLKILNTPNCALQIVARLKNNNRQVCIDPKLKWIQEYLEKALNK
Substance “P1080_IXORI (from UniProt A0A090XBL6 20-118)” had a % cells over threshold fluorescence of 53%.
For “P1095_IXORI (from UniProt A0A0K8RCE3 24-112)”, the % cells over threshold fluorescence is 47%.

The next assay deals with CXCL9_HUMAN (human) (UniProt Q07325). The assay can be described thus: yeast surface display FACS re-test.
Sequence of CXCL9_HUMAN (human) (Q07325 23-125 limits assumed): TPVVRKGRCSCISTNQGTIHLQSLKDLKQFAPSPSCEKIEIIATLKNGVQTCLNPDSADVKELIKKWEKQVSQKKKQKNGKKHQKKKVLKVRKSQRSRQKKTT
Substance “P1124_IXORI (from UniProt A0A0K8RG61 29-83)” yielded a % cells over threshold fluorescence of 31%.
As for “P1100_IXORI (from UniProt A0A0K8R556 29-96)”, the % cells over threshold fluorescence amounted to 55%.
“P1080_IXORI (from UniProt A0A090XBL6 20-118)” had a % cells over threshold fluorescence of 49%.
Still for that read-out and setting: with “P1086_IXORI (from UniProt A0A0K8RK34 29-94)” the figure was 54%.
Still for that read-out and setting: then “P1074_IXORI (from UniProt A0A0K8RDH6 29-96)”, with 35%.
Consider “P458_IXORI (from UniProt A0A0K8R7D4 25-90)”, for which the % cells over threshold fluorescence amounted to 37%.
